Results: patent publication US20090074771A1 (MacroGenics, published 2009)
Values belong to the molecule of their own block, whether it stands above or below them.

Legend:
[1] = target: human FcγRIIB (CD32B) on cells (human) (UniProt P31994); assay: double-staining FACS on CHO cells with full-length FcγRIIB, isotype control pre-incubation
[2] = target: T1, CD32A (H131 form) on THP-1 monocytic cells (human, UniProt P12318 34-317); assay: FACS on THP-1 cells
T1 construct: whole, on cells
T1 sequence (looked up): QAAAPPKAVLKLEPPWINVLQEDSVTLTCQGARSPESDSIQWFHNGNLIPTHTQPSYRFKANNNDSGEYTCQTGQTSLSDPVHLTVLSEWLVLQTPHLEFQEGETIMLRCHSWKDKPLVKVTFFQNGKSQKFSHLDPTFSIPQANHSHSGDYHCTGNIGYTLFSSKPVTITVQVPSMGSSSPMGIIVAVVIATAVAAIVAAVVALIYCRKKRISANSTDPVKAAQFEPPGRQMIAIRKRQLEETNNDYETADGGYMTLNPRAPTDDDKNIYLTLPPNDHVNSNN
Protocol: Recognition of CD32B on the cell surface. Experiments were carried out to test the ability of the antibodies to discriminate CD32B from CD32A expressed on cells and to recognize the native CD32B molecule on human cell lines.

[3] = target: T2, soluble extracellular domain of human CD32A-R131 (human, UniProt P12318 34-217); assay: SPR (BIAcore), antibody captured, soluble monomeric receptor injected
T2 construct: extracellular domain; Monomeric analyte in BIAcore, 100 nM
T2 sequence (looked up): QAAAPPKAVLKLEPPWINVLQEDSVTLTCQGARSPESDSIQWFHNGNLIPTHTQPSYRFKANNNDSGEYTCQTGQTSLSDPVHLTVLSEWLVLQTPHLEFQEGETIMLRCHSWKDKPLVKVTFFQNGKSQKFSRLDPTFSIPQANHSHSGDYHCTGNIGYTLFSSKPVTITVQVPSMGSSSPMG
Protocol: The capturing antibody, a F(ab′)2 fragment of a goat anti-mouse Fc-specific antibody (Jackson Immunoresearch, West Grove, Pa.), was immobilized on the CM-5 sensor chip according to the procedure recommended by the manufacturer. Briefly, the carboxyl groups on the sensor chip surface were activated with an injection of a solution containing 0.2M N-ethyl-N-(3diethylamino-propyl) carbodiimide and 0.05M N-hydroxy-succinimide. The F(ab′)2 fragment was then injected over the activated CM-5 surface in 10 mM sodium-acetate, pH 5.0, at flow rate 5 μl/min for 420 sec, followed by 1 M ethanolamine for deactivation. Binding experiments were performed in HBS-P buffer containing 110 mM HEPES, pH 7.4, 150 mM NaCl, and 0.005% P20 surfactant. Each monoclonal antibody was captured on the CM-5 chip by injecting a 300 nM-antibody solution at flow rate 5 μl/min for 240 sec, followed by an injection of the monomeric soluble receptors at concentration of 100 nM and a flow rate 50 μl/min for 120 sec with dissociation time 180 sec. Regeneration of the F(ab′)2 GAM surface was performed by pulse injection of 50 mM glycine, pH 1.5 and 50 mM NaOH. […] Resulted curves were analyzed by separate ka/kd fit. KD values were calculated as average of four curves at two different concentrations. […]

[4] = target: T3, soluble extracellular domain of human FcγRIIB (CD32B), produced in mammalian (293/293H) cells (human, UniProt P31994 43-217); assay: direct ELISA, receptor-coated plate
T3 construct: extracellular domain; also called mammalian FcγRIIB; soluble monomeric human CD32B
T3 sequence (looked up): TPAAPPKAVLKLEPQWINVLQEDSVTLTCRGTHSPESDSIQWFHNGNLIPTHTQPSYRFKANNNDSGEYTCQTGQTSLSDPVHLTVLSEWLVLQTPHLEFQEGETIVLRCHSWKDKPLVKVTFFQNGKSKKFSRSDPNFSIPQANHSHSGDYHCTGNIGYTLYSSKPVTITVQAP

[5] = target: T4, FcγRIIIA coated on ELISA plates (UniProt P08637 17-208, limits assumed); assay: direct ELISA, receptor-coated plate
T4 construct: 100 ng/well on the plate
T4 sequence (P08637 17-208 limits assumed): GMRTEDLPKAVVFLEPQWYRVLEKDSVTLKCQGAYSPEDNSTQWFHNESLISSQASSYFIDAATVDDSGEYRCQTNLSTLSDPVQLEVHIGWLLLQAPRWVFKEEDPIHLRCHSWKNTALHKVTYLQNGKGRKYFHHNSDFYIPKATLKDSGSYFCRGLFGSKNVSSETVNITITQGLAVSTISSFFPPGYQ

- percent of cells stained [1]: 60%
Molecule: aggregated human IgG (ligand)

- binding result [2]: no binding
- fold binding relative to AT10, FL18.26 and IV.3 [4]: ≤ 4.5 fold
B1: mouse monoclonal antibody produced by clone 2B6 (antibody, V domains shown)
VH: QVQLQQPVTELVRPGASVMLSCKASDYPFTNYWIHWVKQRPGQGLEWIGVIDPSDTYPNYNKKFKGKATLTVVVSSSTAYMQLSSLTSDDSAVYYCARNGDSDYYSGMDYWGQGTSVTVSS
VL: DILLTQSPAILSVSPGERVSFSCRTSQSIGTNIHWYQQRTNGFPRLLIKNVSESISGIPSRFSGSGSGTDFILSINSVESEDIADYYCQQSNTWPFTFGGGTKLEIK
notes: also called 2B6 antibody; m2B6
- binding result [3]: no binding (tested: 100 nM soluble receptor)

- binding result [5]: no binding
B2: mouse monoclonal antibody produced by clone 3H7 (antibody, V domains shown)
VH: EVKFEESGGGLVQPGGSMKLSCAASGFTFSDAWMDWVRQGPEKGLEWVAEIRNKANNLATYYAESVKGRFTIPRDDSKSSVYLHMNSLRAEDTGIYYCYSPFAYWGQGTLVTVSA
VL: DIQMTQSPSSLSASLGERVSLTCRASQEISGYLSWLQQKPDGTIRRLIYAASTLDSGVPKRFSGSWSGSDYSLTISSLESEDFADYYCLQYVSYPYTFGGGTKLEIK
notes: also called 3H7 antibody; 3H7 supernatant
